# Assay: label from the status in PepcDB records
row,Sequence,protein production
1,MAGSGVPSHRSMVIKVSVFAVVMLLVAAGLVVVFGDFRFGPTTVYHATFTDASRLKAGQKVRIAGVPVGSVKAVKLNPDHSIDVAFAIDRSYTLYSSTRAVIRYENLVGDRFLEITSGPGELRKLPPGGTINVAHTQPALDLDALLGGLRPVLKGFDADKINTITSAVIELLQGQGGPLANVLADTGAFSAALGARDQLIGEVITNLNAVLATVDAKSAQFSASVDQLQQLVSGLAKNRDPIAGAISPLASTTTDLTELLRNSRRPLQGILENARPLATELDNRKAEVNNDIEQLGEDYLRLSALGSYGAFFNIYFCSVTIKINGPAGSDILLPIGGQPDPSKGRCAFAK,failed
2,RKFEGMKTVQLICIKMSCIMLFFVSGYAKGTQEEHTMQFGEEKTTYLLHLPKGYIQGKAYSLVVNFHGLGSAAIKHQHYCQLDAVADKEGFIAVYPQSYHQGWNAGLGFTSYIQGHDDIAYFNALLDTLEAAYSIDKNRIYVTGVSLGGSFTYRIACEMSKRIAAIASVSGLMSDSTLIYCTPERSVPVMHIHGTKDHIMRYTGMKQAFGAEEVVRLWALKDQCENKPDTVFVPNTSKKDHTSSILIKYTHCANGSEVWFYKIYNGGHTWPGAAKAFKLMGRKSKDFNG,failed
3,MKKPVHDMRQHIIDVARSLMTNKGYTAVGLAEVLITAGVPKGSFYYYFKSKEEFGQALLEEYFSEYLGRVDALMARPGTGAERLLAYFMYWSETQGTDLPEGKCLVVKLGAEVCDLSEDMRCVLEVGTAKIIQRISACVEMGVSDGSIHPEGDHQGFAESLYQLWLGASLLVKVNKSTESFDKALNMTKRLLK,failed
4,MERKKLIAKFVEIASEKMGKDLETVDEENTFKELGFDSIDVIDLVMFFEDEFALRIEDEEISKIRKVKDLIDIVIKKLEEIDDEVSEG,not failed
5,MNMSTDRIERRIVLHAPRSRVWRALTNADEFGAWFRVDLAGQAFEAGRRVEGRITYPGYEHLVLQMRIERIEPEHHFSYRWHPAAVDPAVDYSQEAPTLVVFELADAEGGPLLTVVESGFDALPVERRADAFRMNSGGWDEQMTNIAAHVDAR,failed
6,TEERLKEIEAKYDEIAKDWPKKVKHVLHEEHELELTRVQVYTCDKCEEEGTIWSYHCDECDFDLHAKCALNEDTKE,not failed
7,MSLVEATLEVIGGKWKCVILCHLTHGKKRTSELKRLMPNITQKMLTQQLRELEADGVINRIVYNQVPPKVEYELSEYGRSLEGILDMLCAWGANHINRVEGHHHHHH,not failed
8,MTYNVTALVGNAGNQDTSGVRVDFVDNGVRVGSYTIPLLRSGETTTVVFNWTPMTVGSHTLQLIIDPENHIQETNETNNRIIL,failed
9,MGHSGREERIKDIFKELTSKELTPGLLLTLQKLAQKPNTNLEQFIASCKALTKLSSNNPIIFNELLELLKNKSEEDSTGPKKIAPSINKRKKFKIQLDLDDNEDELDSPVQKKPAPTRTLFKRIDKLKAKQLRQYSPTVKDPSPNSEQQTQNGHAETKDYEPTRSEVVEEDREWYDNDDDYGNLVPEPLSELPEEAKLLPVIRNIDNDDALRNTVQLYPIPLKQRMEWIPPFLSKFALENKVPTSIIIGSISETSSQVSALSMVNPFRNPDSEFSANAKRGSKLVALRRINMEHIQQSRDNTTVLNTAMGEVLGLENNNKAKDKSNQKICDDTALFTPSKDDIKHTKEQLPVFRCRSQLLSLIRENQVVVIIGETGSGKTTQLAQYLYEEGYANDRGKSIVVTQPRRVAAISVAKRVAMEMQVPLGKEVGYSIRFEDVTDSECTKLKFVTDGILLRETLLDDTLDKYSCVIIDEAHERSLNTDILLGFFKILLARRRDLKLIITSATMNAKKFSAFFGNAPQFTIPGRTFPVQTIYTSNPVQDYVEAAVSQAVKIHLANDCSSGDILIFMTGQEDIETTFDTLQEKFLQVYSKKFGTANFEEINDIEILPIYSALPADLQFKIFQDLHGTKRKIIIATNIAETSLTIKGIRYVIDCGYSKLKVYNPKIGLDSLVITPISKANADQRSGRAGRTAPGTAYRLYTEDTFKEDMYLQTIPEIQRTNLSNTLLLLKSLDVTDELSKFPFIDKPPLQTFLSSLYELWFIGAIDTSGQLTPLGLQMAKFPLQPSLSKILLIAVRNGCSDEMLTIVSMLSVPQVFYRPKERQKEADIARNKFFIAKSDHLTLLNVFEQWRANNFSSHWCNKHFVQYKSLVRARDIRDQLLTILKSQKIPVISSGKDWDIIKKCICSGFAHQAAKITGLRNYVHLKTGVSVQLHPTSALHGLGDLPPYVVYHELLMTSKEYICCVTSVDPFWLMEYGGLLYDIKRIKNDQEATTTGLFGEHYEHTLDKVEDDIDINIRRCKDMRDSVIQELKMTDNSNKEDKKQKTKKQNILNGKENSMKPFKRRKPFF,failed
10,MACGKGHDIMEVASPYGWKKNPQKVLDFYNQRRRQLFEVYPNKAHKALAELEKHYQVNIITQNVDDLHERAGSSRILHLHGELLSVRSEKDPNLVYRWEKDLNLGDLAKDKSQLRPDIVWFGEAVPLLKEAISLVKQAHLLIIIGTSLQVYPAASLYTHAHKDALIYYIDPKAKNAHLPQNVQCINESAVHAMQDLMPKLIEMAS,failed
11,DIMGFVFNTRRTLFKDKRVRQALSILFDFEWVNHHLFNNIYTRTEGYWDGSILSSIGKPASEEEKALLAPYPDAVLPEVMDGSWRISKTDGSGMDRLNAQKAWKLLQEAGFTKKNNRLIAPNGLPFQFEIMTQSLEEEKVALAFQSNLSRLGIHAEIRTVDDSQYQNRLGMFNYDMIIGKLKNSLSPGNEQINRWSSASRNLKGSFNFSGASDPAIDAMITAILDAHSQVDFIAAVRALDRILISGSYYIPLYHLS,not failed
12,MSLELEWMSIDDLKLPSNVIDIIKNRGIKKLNPPQTEAVKKGLLDGNRLLLTSPTGSGKTLIAEMGIISFLLKNGGKAIYVTPLRALTNEKYLTFKDWESIGFKVAMTSGDYDTDDAWLKNYDIIITTYEKLDSLWRHRPDWLNEANYFVLDELHYLNDPERGPVVESVTIRAKRRNLLALSATISNYKQIAKWLGAEPVATNWRPVPLMEGVMYPERKKKEYTILFRDNTARKVHGDDAIIAYTLDSLSKNGQVLVFRNSRKMAESTALKIANYMNFVSLDEKAISEILKQLDDIEEGGSDEKELLKSLISKGVAYHHAGLSKALRDIIEESFRKRKIKVIVATPTLAAGVNLPARTVIIGDIYRFNRKIVGYYDEIPVMEYKQMSGRAGRPGFDQIGESIIVVRDKEDVDRVFKKYILSDVEPIESKLGSERAFYTFLLGILSAEGSLSEKQLEAFAYESLLAKSVVDVYFDRAIRWLSEHSFIREENNTFTLTNFGKRVADLYINPFTADIIRKGLEGYKASCEIAYLHLLAFTPDGPLVSVGRNEEEELIELLEDLECELLVEEPYEEDEYSLYLNALKVALIMKDWIDEVDEDTILGKYNIGSGDLRNIVETMDWLTYSAYHLSKELRLDDHSDKLRILNLRVTDGVKEELLELVQIGGVGRKRARLLYNNGIKGLGDVVMNPDRVRNLLGQKLGERVVQEAARLLNRFH,failed
13,MARMKARSGKGRRVARDTWKTKSWYEIRTPQSFGGDLLGTTPANDPSNLLGRVTETSLKDLTNDHSKHMVRLYFKVDGVAGNNATTQFVGHNTTREYLKSLVRRRRSKIVTITDIRTKDGYKIRVKAMVLTAVRARDHHKTDIRKKMEQIIVNMARNSTFPEFVQAMLLGGLGSKIYATCKRIMPMKRVEIYKSEVMEFGKSATPVVEAPAETEVKEEVKKEVVETQTE,failed
14,ALAERRLFAELVDHSVVNVHVVDKDLRWLAVNRQARHDFHLLYGRTPEIGDYLPGLFEDGTAGQTPILPMWQRALAGEQFIEIGTFGKPPAVRHYELRFNALRDPKGEVQGAFLFAYDISERVQEQERLAKAEAALRQAQKMEAVGQLSGGIAHDFNNLLGGI,failed
15,MYTCKNKERMLMYKTIIMPVDVFEMELSDKAIRHAEFLAQDDGVIHLLHVLPGSASLSLHRFAADVRRFEEHLQHEAEERLQTMVSHFTIDPSRIKQHVRFGSVRDEVNELAKELDADVVVIGSRNPSISTHLLGSNASSVIRHANLPVLVVR,failed
16,LECDGKVNICCKKQFFVSFKDIGWNDWIIAPSGYHANYCEGECPSHIAGTSGSSLSFHSTVINHYRMRGHSPFANLKSCCVPTKLRPMSMLYYDDGQNIIKKDIQNMIVEECGCS,not failed
17,RLSAREAIALLSDDFDRLPVAEGAYAPDGPLSWQGYDASRARATERTGEDESVVCGRARIDGTPAVLIAFEFGFLGGSLGERTGDRLEAAYTYARAHRLPVVSLVATGGSRMQEGMLALTQLQRVARQSALTRAAGLPQLAVLRDPTTGGGWATLGAGADVVLALPGVQVGFAGSRVRPPDADPAAYTAQAQLAAGSIDAVVRPQELRETVGLWLALLTAPSTEP,failed
18,MTVNAKTSPSAGNTWRDLPAAQQPEYPDTEALRAVIADLESYPPLVFAGECDQLRARMAAVAKGEAFLLQGGDCAEAFDAVSADHIRNKLKTLLQMGAVLTYAASVPVVKVGRIAGQYSKPRSKPTETRDGVTLPTYRGDSVNGFDFTEAARIPDPERLKRMYHASASTLNLVRAFTTGGYADLRQVHAWNQDFVKSSPSGQRYEQLAREIDNALNFMRACGTDPAEFQTVEFFSSHEALLLDYESALTRVDSRTGQLYDVSGHMVWIGERTRQLDHAHIEFASRIRNPIGIKLGPSTTAEEALQYIERLDPEREPGRLTFIVRMGADKIRDKLPELVEKVTASGATVAWITDPMHGNTYEAASGHKTRRFDDVLDEVKGFFEVHKSLGTHPGGIHVELTGDDVTECVGGGDEIFVDDLHQRYETACDPRLNRSQSLDLAFLVAEMYRDQ,not failed
19,MSHVLVNVAWPYANGPRHIGHVAGFGVPSDVYARYERMKGNDVLMVSGTDEHGTPILVEAEKEGLTAQELANRYNRVIAKDLCDLGLSYDLFTRTTTGNHEHVVQEMFKQCLENGYIYKGSQQVAISPSTGRTLPDRYIEGECPICHAEGARGDQCDACGNELDPDELINPVSKINGETPRFEQTEHYFLDLPALAEANKAWLETRKGWRTNVINFSLGLFKEVKPRAITRDIDWGIPVPVKGWIDNPNKKLYVWFDAVIGYLSASIEWARRQGDPEKWREWWNDPKCPAYYFMGKDNITFHSQIWPSEMLAYNGKGSKGGETGPMGPLNLPEQVVASEFMTMEGKKFSSSRGIVIYVKDILARYPVDAVRYYISVAGPESSDSDFTWAEFVRHNNEELASSWGNLVNRVANLINKNFGEIPPLDEDSMTNEDRGLLEEASAAFDVVGSSIETHHQKHALSEAMRVVGDINKYISATEPWKIKDDQARLGTVLHVAAQAVSDANHLLAPFLPHSAQKVWEALGGTGTFSPLPELKEVEDLDKPGFTYPIITGDYELGVNVHPWKSEAIEVGAVVPKPAPIFAKIPTEAVEEELARFDEALAARRAAEAERLAAEKAKLAAE,failed
20,MKDIIITSQKIKRERNIYLICFLLSFAINIIAILVYTRPWIEIFTQLGYVLVISFFIYFILWIPRILVIGLRHLLRKKK,failed
21,MSEYEVLLATKRRTPPDSSAGRSSQIWRRAFGHWLQGRNGSSSLSNQNEPRPCRVRRNAGSHGPPVCIPFALALPPRMDVRLPSRLAPPLGAVLLCTLLMGGPPPTVASPAVLFPSADTTSPRARRLLIQGTTEAQLGDYEEAISHFEAALEQVPEAPVLLLALADAHEAQGALSTALFYARRAQTQGSPRPSPYRRLAEMQRAAGDPAAALRTYQQLLDHVPNANDAHRARAAIQADLGRTKGAIQSYEIYLQRADSPPIDVYRRLLSLYRKTGDKDGVETTLRTLVERRPTVRSYQRRLGEYYADEGRPRKALALLAPLGRQFPNDEALRRQVQRLARQTGQSIASPTQRAQSDSTRSQSASPDAPLRRARSMYDAATASSPPDTAQLRAAAGVLRDVLHQSPDTEAALSLQAELYQAWGRPEEAGRAMERLLDLTPRAPGRWVRTAQTYQRAHLYARAAGVAEEGFLLFPGHMPLARTAAFARLRTGDPAKARRHFQDALSLLGDSTGAAAEAVLHAGLGLAKSRLGRPREADDALKNARALAPQHPQVVRLYARSLARQDDRLDQALDLAEQAVENAPDSPSAHRALGQVQFRRDELEAARRHLRIALDAGGPSATLLERLGDVEAALGNDTAAQTYWQRALDRNPDRSSLREKLAVPANS,failed

# Reference: a protein production outcome set (Wang et al. 2014)
